Results published in the Human Domainome abundance scans (Beltran et al. 2025).
± gives the uncertainty stated by the source.

B1: Homeobox protein cut-like 2, residues 895 to 963; numbered along this chain, O14529 (parent)
chain: EVDTLELTRQVKEKLAKNGICQRIFGEKVLGLSQGSVSDMLSRPKPWSKLTQKGREPFIRMQLWLSDQL

Variants of: B1
Experiment: abundance fitness (aPCA) (normalised: wild type 0, dead -1); higher = more abundant; growth selection in yeast, the domain comes from the species named
Settings: Homo sapiens

Row | Variant | abundance fitness
1 | V11I | -0.18 ± 0.092
2 | V11T | -0.171 ± 0.049
3 | V11M | -0.162 ± 0.041
4 | V11W | -0.313 ± 0.034
5 | W64V | -1.15 ± 0.087
6 | L7H | -0.246 ± 0.073
7 | E6M | -0.192 ± 0.035
8 | E6W | -0.173 ± 0.029
9 | K45L | -0.009 ± 0.025
10 | K45T | -0.149 ± 0.055
11 | K45V | -0.083 ± 0.034
12 | K45Q | -0.132 ± 0.059
13 | I20M | -0.023 ± 0.037
14 | I20H | -0.382 ± 0.052
15 | I20N | -0.453 ± 0.077
16 | V2R | -0.041 ± 0.052
17 | V2D | -0.301 ± 0.072
18 | V2E | -0.019 ± 0.047
19 | K14W | -0.094 ± 0.091
20 | K14S | -0.154 ± 0.057
21 | K14M | 0.066 ± 0.033
22 | K14R | -0.062 ± 0.067
23 | L30Q | -0.423 ± 0.061
24 | T51A | -0.1 ± 0.039

Row | Variant | abundance fitness
25 | T51F | -0.005 ± 0.059
26 | K12A | -0.372 ± 0.058
27 | K12S | -0.387 ± 0.032
28 | K12D | -0.025 ± 0.11
29 | S42M | 0.012 ± 0.037
30 | V29E | -0.535 ± 0.055
31 | V29Y | -0.145 ± 0.052
32 | K49Y | -0.301 ± 0.047
33 | K49L | 0.002 ± 0.028
34 | R23E | 0.068 ± 0.047
35 | R23H | -0.094 ± 0.096
36 | W47V | -0.808 ± 0.044
37 | W47N | -0.895 ± 0.14
38 | W47Q | -0.84 ± 0.058
39 | W47T | -0.654 ± 0.062
40 | W47Y | -0.554 ± 0.063
41 | W47E | -1.08 ± 0.14
42 | W47H | -0.894 ± 0.063
43 | T4M | 0.037 ± 0.03
44 | T4H | -0.186 ± 0.051
45 | T4Q | -0.254 ± 0.033
46 | T4A | -0.334 ± 0.034
47 | T4E | -0.208 ± 0.041
48 | T4V | -0.221 ± 0.031

Row | Variant | abundance fitness
49 | K28T | -0.078 ± 0.033
50 | I59K | 0.079 ± 0.051
51 | I59E | 0.028 ± 0.064
52 | I59D | -0.535 ± 0.1
53 | I59W | -0.299 ± 0.072
54 | I59R | 0.113 ± 0.04
55 | I59M | -0.046 ± 0.041
56 | I59N | -0.117 ± 0.051
57 | M61A | -0.093 ± 0.041
58 | M61H | -0.812 ± 0.11
59 | M61R | -0.935 ± 0.046
60 | I24S | -0.084 ± 0.036
61 | Q68L | -0.052 ± 0.03
62 | Q68G | -0.13 ± 0.03
63 | R9G | -0.129 ± 0.026
64 | R9L | -0.162 ± 0.028
65 | R9P | -0.137 ± 0.047
66 | R9C | -0.21 ± 0.042
67 | R9F | -0.181 ± 0.046
68 | R9N | -0.068 ± 0.065
69 | G26T | -0.221 ± 0.063
70 | G26H | -0.525 ± 0.12
71 | K17M | -0.09 ± 0.039
72 | K17D | -0.175 ± 0.05

Row | Variant | abundance fitness
73 | K17Y | -0.276 ± 0.076
74 | K17P | -0.411 ± 0.092
75 | K17G | -0.234 ± 0.043
76 | S48H | -0.011 ± 0.04
77 | Q10S | -0.155 ± 0.03
78 | Q10V | -0.164 ± 0.043
79 | S33I | -0.088 ± 0.058
80 | S33T | -0.036 ± 0.048
81 | S33M | 0.053 ± 0.05
82 | S38F | -0.221 ± 0.26
83 | S38E | 0.106 ± 0.036
84 | S38A | 0.015 ± 0.028
85 | L5I | 0.024 ± 0.045
86 | L5K | 0.102 ± 0.031
87 | L5P | -0.076 ± 0.036
88 | L5R | -0.039 ± 0.031
89 | Q34N | 0.046 ± 0.038
90 | Q34A | 0.088 ± 0.081
91 | L63M | 0.041 ± 0.047
92 | L63S | 0.069 ± 0.032
93 | R60D | -0.905 ± 0.36
94 | R60H | -0.462 ± 0.064
95 | R60G | -0.287 ± 0.23
96 | E27A | -0.063 ± 0.035

Row | Variant | abundance fitness
97 | L41G | -0.107 ± 0.11
98 | L41P | -0.257 ± 0.032
99 | L41S | -0.234 ± 0.032
100 | L41A | -0.223 ± 0.079
101 | L32W | -0.043 ± 0.063
102 | L32P | -0.286 ± 0.057
103 | L32V | 0.132 ± 0.05
104 | G35F | -0.079 ± 0.037
105 | G35W | -0.106 ± 0.031
106 | G35A | -0.006 ± 0.045
107 | C21H | -0.029 ± 0.081
108 | E13I | -0.139 ± 0.056
109 | E13V | -0.235 ± 0.041
110 | E13W | -0.357 ± 0.047
111 | E56F | -0.362 ± 0.066
112 | A16P | -0.18 ± 0.038
113 | A16D | -0.055 ± 0.067
114 | A16I | -0.313 ± 0.079
115 | A16L | -0.109 ± 0.028
116 | A16T | -0.062 ± 0.04
117 | K53I | -0.037 ± 0.27
118 | K53T | -0.166 ± 0.036
119 | K53D | -0.3 ± 0.12
120 | K53P | -0.282 ± 0.034

Row | Variant | abundance fitness
121 | P57Q | -0.036 ± 0.038
122 | P57F | -0.028 ± 0.051
123 | P57R | -0.081 ± 0.055
124 | M40S | -0.201 ± 0.038
125 | M40W | 0.048 ± 0.046
126 | P46R | -0.057 ± 0.08
127 | P46W | 0.044 ± 0.085
128 | P46A | -0.236 ± 0.28
129 | L65S | -0.962 ± 0.049
130 | L65K | -0.726 ± 0.045
131 | F58M | -0.502 ± 0.076
132 | F25T | -0.449 ± 0.063
133 | Q62T | -0.308 ± 0.038
134 | S66L | -0.104 ± 0.024
135 | E1D | -0.457 ± 0.093
136 | T8D | -0.214 ± 0.073
137 | T8P | -0.185 ± 0.038
138 | V37I | -0.156 ± 0.046
139 | P44V | -0.161 ± 0.035
140 | P44N | -0.385 ± 0.11
141 | P44G | -0.261 ± 0.058
142 | P44Q | -0.135 ± 0.044
143 | N18W | -0.102 ± 0.041
144 | N18V | -0.075 ± 0.043

Row | Variant | abundance fitness
145 | D3Y | -0.358 ± 0.047
146 | D3R | -0.316 ± 0.043
147 | D3C | -0.279 ± 0.047
148 | G54S | -0.092 ± 0.032
149 | G54W | -0.097 ± 0.043
150 | G54T | -0.084 ± 0.034
151 | Q22H | -0.239 ± 0.12
152 | Q22R | -0.062 ± 0.044
153 | Q22G | -0.354 ± 0.049
154 | L50Q | -0.874 ± 0.068
155 | R43H | 0.004 ± 0.048
156 | R43W | -0.191 ± 0.049
157 | R43V | -0.23 ± 0.037
158 | R43F | -0.101 ± 0.061
159 | D39R | -0.456 ± 0.16
160 | D39T | -0.17 ± 0.11
161 | D39A | -0.063 ± 0.09
162 | Q52D | 0.017 ± 0.12
163 | Q52H | -0.218 ± 0.079
164 | Q52T | 0.046 ± 0.042
165 | Q52G | -0.18 ± 0.05
166 | Q52C | -0.038 ± 0.08
167 | Q52E | -0.016 ± 0.067
